# In the supplement of paper PMC7877785:
# ± gives the uncertainty stated by the source.
# Test: self-splicing fitness, log relative to wild type (ln ratio); higher = more splicing; Tetrahymena group I intron in knt gene, E. coli kanamycin selection, DiMSum; sequences stand for … in CUCUCU…GGAGGGAAAAGUUAUCAGGCAUGCACCUGGUAGCUAGUCUUUAAACCAAUAGAUUGCAUCGGUUUAAAAGGCAAGACCGUCAAAUUGCGGGAAAGGGGUCAACAGCCGUUCAGUACCAAGUCUCAGGGGAAACUUUGAGAUGGCCUUGCAAAGGGUAUGGUAAUAAGCUGACGGACAUGGUCCUAACCACGCAGCCAAGUCCUAAGUCAACAGAUCUUCUGUUGAUAUGGAUGCAGUUCACAGACUAAAUGUCGGUCGGGGAAGAUGUAUUCUUCUCAUAAGAUAUAGUCGGACCUCUCCUUAAUGGGAGCUAGCGGAUGAAGUGAUGCAACACUGGAGCCGCUGGGAACUAAUUUGUAUGCGAAAGUAUAUUGAUUAGUUUUGGAGUACUCGUGGUCG
# Outline: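 Six replicate transformations of E. coli BL21(DE3) with a pET-22b(+) library were grown overnight at 37°C or 30°C. The library randomised all eight P1ex-region intron nucleotides, the intron lying in the knt kanamycin-resistance gene, and plates were LB agar with or without 25 μg/mL kanamycin plus 100 μg/mL carbenicillin, 50 μM IPTG and 0.2% rhamnose. Pooled colonies were amplicon-sequenced on an Illumina HiSeq 2500, and fitness is the DiMSum error-weighted combination of wild-type-normalised replicate fold changes, kanamycin versus none.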
Sequence,self-splicing fitness (ln) (30 °C),self-splicing fitness (ln) (37 °C)
AAUGAGCAAUAUUACGAAUU,-2.71 ± 0.28,-2.3 ± 0.39
ACCUAGCAAUAUUACGGACC,-0.548 ± 0.16,0.368 ± 0.17
UAAGAGCAAUAUUACGAAAC,,-2.99 ± 0.37
ACACAGCAAUAUUACGUCUC,-3.26 ± 0.099,-1.25 ± 0.08
CGACAGCAAUAUUACGUUAA,-3.04 ± 0.22,-2.19 ± 0.18
ACUUAGCAAUAUUACGCUUU,-1.69 ± 0.088,-1.42 ± 0.14
GAGCAGCAAUAUUACGUAGA,-2.24 ± 0.1,-1.03 ± 0.13
GCAAAGCAAUAUUACGUCGA,-1.83 ± 0.091,-0.578 ± 0.094
GUAGAGCAAUAUUACGCUCA,-0.751 ± 0.1,-0.0338 ± 0.16
AAUAAGCAAUAUUACGUAUA,-1.76 ± 0.12,-1.56 ± 0.13
AAUAAGCAAUAUUACGUUGC,-3.52 ± 0.19,-2.53 ± 0.2
CAGAAGCAAUAUUACGCAAC,,-2.39 ± 0.33
GUACAGCAAUAUUACGCUUU,-2.99 ± 0.12,-1.19 ± 0.12
CUAAAGCAAUAUUACGCUUC,-3.03 ± 0.22,
GAUUAGCAAUAUUACGAGUA,-2.63 ± 0.17,-0.695 ± 0.13
AGGUAGCAAUAUUACGCCCA,0.15 ± 0.02,-0.0344 ± 0.039
ACUUAGCAAUAUUACGACUA,-1.81 ± 0.17,-0.513 ± 0.14
CCUCAGCAAUAUUACGGCAG,-2.91 ± 0.18,-1.15 ± 0.13
UCGUAGCAAUAUUACGUGUC,-3.24 ± 0.25,-2.38 ± 0.25
UGGAAGCAAUAUUACGGCCA,-0.874 ± 0.21,-0.244 ± 0.2
GGACAGCAAUAUUACGCGGC,-3.12 ± 0.22,-2.76 ± 0.34
AACUAGCAAUAUUACGGUGC,-2.46 ± 0.16,-1.77 ± 0.15
UACGAGCAAUAUUACGUUGC,-3.28 ± 0.32,-2.18 ± 0.33
GAUGAGCAAUAUUACGAGCU,-3.65 ± 0.26,-2.11 ± 0.24
UUUCAGCAAUAUUACGAGAU,,-2.72 ± 0.48

Sequence,self-splicing fitness (ln) (30 °C),self-splicing fitness (ln) (37 °C)
CUAUAGCAAUAUUACGUAGU,-2.88 ± 0.16,-2.26 ± 0.23
AGUGAGCAAUAUUACGGCUU,-2.43 ± 0.17,-1.72 ± 0.25
CUCGAGCAAUAUUACGCCAA,-3.29 ± 0.41,-2.04 ± 0.46
CGGAAGCAAUAUUACGAUGG,-0.404 ± 0.096,0.233 ± 0.13
UUAAAGCAAUAUUACGGAUU,-2.69 ± 0.1,-1.74 ± 0.14
GUACAGCAAUAUUACGCCGU,-2.95 ± 0.21,-1.06 ± 0.16
AUUUAGCAAUAUUACGCCCU,0.0873 ± 0.082,0.37 ± 0.11
UUCCAGCAAUAUUACGUGGU,-3.26 ± 0.17,-2.08 ± 0.14
UGGUAGCAAUAUUACGACCC,0.0232 ± 0.27,-0.576 ± 0.36
ACGAAGCAAUAUUACGGCAC,-2.03 ± 0.17,-0.996 ± 0.24
CGUAAGCAAUAUUACGUUGU,-3.29 ± 0.18,-2.53 ± 0.22
AACUAGCAAUAUUACGUGGC,-3.72 ± 0.25,-1.92 ± 0.17
CGCCAGCAAUAUUACGCUAU,-3.43 ± 0.15,-3.01 ± 0.21
AAUGAGCAAUAUUACGAGCG,-3.49 ± 0.38,-1.56 ± 0.3
CACGAGCAAUAUUACGCCAU,-2.82 ± 0.27,-2.55 ± 0.33
CUUUAGCAAUAUUACGUGUG,-1.6 ± 0.094,-0.61 ± 0.08
UAAAAGCAAUAUUACGGCAG,-0.504 ± 0.079,-0.106 ± 0.097
CUAAAGCAAUAUUACGAAUA,-2.73 ± 0.23,-1.94 ± 0.24
AGCAAGCAAUAUUACGUGAU,-2.1 ± 0.072,-1.32 ± 0.08
GACAAGCAAUAUUACGCCUG,-1.3 ± 0.093,-0.0185 ± 0.1
AUUAAGCAAUAUUACGAGGC,-3.18 ± 0.39,-1.99 ± 0.34
UGGAAGCAAUAUUACGCAAG,,-1.83 ± 0.37
UAUCAGCAAUAUUACGAGAU,-3.27 ± 0.16,-2.21 ± 0.23
CGACAGCAAUAUUACGUUGU,-3.46 ± 0.1,-3.25 ± 0.15
